Results published in article PMC8387031, “Structures of Substrate Complexes of Foamy Viral Protease-Reverse Transcriptase”.

Columns and labels:
[1] = molecular target: MFV PR-RT ΔRH (deletion variant of MFV PR-RT that lacked the RH domain) (marmoset foamy virus (MFV)); test: crystal structure; MFV PR-RT ΔRH at 5 mg/ml with 13-bp dsDNA with a 2-nt 5' overhang (substrate 2) at a 1:1 molar ratio; hanging drop; 0.1 M DL-malic acid pH 7.0, 10% PEG 3350; space group C 2
MFV PR-RT ΔRH = MFV PR-RT ΔRH (marmoset foamy virus, UniProt D5JWV1 1-588); test: X-ray crystallography; asymmetric homodimer; 1:1 mix; GF/MALS: 20 mM HEPES pH 7.0, 250 mM NaCl, 5% glycerol, 0.5 mM EDTA, 1 mM DTT; cryo-EM: 150 mM NaCl, 20 mM HEPES pH 7.0, 1 mM DTT; crystals: N1 Morpheus MES-imidazole pH 6.5, 18 C; N2 0.1 M DL-malic acid pH 7.0, 10% PEG 3350; settings: protein: recombinant; tags: 6xHis-SUMO (pET28 vector); chain copies: 2; 13 bp, 5' overhang 2 nt on template
MFV PR-RT full-length [2] = molecular target: T1, MFV PR-RT full-length (marmoset foamy virus, UniProt D5JWV1 1-751); test: GF/MALS; 2:1 protein:NA; 0.5 mM EDTA; single peak 123.3 kDa, one protein per hybrid; GF/MALS: 20 mM HEPES pH 7.0, 250 mM NaCl, 5% glycerol, 0.5 mM EDTA, 1 mM DTT; cryo-EM: 150 mM NaCl, 20 mM HEPES pH 7.0, 1 mM DTT; crystals: N1 Morpheus MES-imidazole pH 6.5, 18 C; N2 0.1 M DL-malic acid pH 7.0, 10% PEG 3350; settings: protein: recombinant; tags: 6xHis-SUMO (pET28 vector); 28 bp, 5' overhang 6 nt on RNA
MFV PR-RT full-length [3] = molecular target: T1, MFV PR-RT full-length; test: cryo-EM (4.8 A); asymmetric dimer; EMD-12698; GF/MALS: 20 mM HEPES pH 7.0, 250 mM NaCl, 5% glycerol, 0.5 mM EDTA, 1 mM DTT; cryo-EM: 150 mM NaCl, 20 mM HEPES pH 7.0, 1 mM DTT; crystals: N1 Morpheus MES-imidazole pH 6.5, 18 C; N2 0.1 M DL-malic acid pH 7.0, 10% PEG 3350; settings: protein: recombinant; tags: 6xHis-SUMO (pET28 vector); 22 bp, 5' overhang 2 nt on template
MFV PR-RT full-length [4] = molecular target: T1, MFV PR-RT full-length; test: X-ray crystallography; monomer; 1:1 mix; GF/MALS: 20 mM HEPES pH 7.0, 250 mM NaCl, 5% glycerol, 0.5 mM EDTA, 1 mM DTT; cryo-EM: 150 mM NaCl, 20 mM HEPES pH 7.0, 1 mM DTT; crystals: N1 Morpheus MES-imidazole pH 6.5, 18 C; N2 0.1 M DL-malic acid pH 7.0, 10% PEG 3350; settings: protein: recombinant; tags: 6xHis-SUMO (pET28 vector); 15 bp; RNA 5' overhang 2 nt and 3' overhang 1 nt; recessed DNA 3' end

MFV PR-RT ΔRH (deletion variant of MFV PR-RT that lacked the RH domain) (domain or fragment)
stoichiometry N [1]: 2

B1: substrate 2 dsDNA (dsDNA)
DNA 1: AACAGAGTGCGACAC
DNA 2: GTGTCGCACTCTG
binding result (MFV PR-RT ΔRH): binds

B2: GF/MALS RNA/DNA hybrid (DNA:RNA)
RNA: GUGAGCGAACAGAGUGCGACACCUGAUUCCAUGA
DNA: TCATGGAATCAGGTGTCGCACTCTGTTC
binding result (MFV PR-RT full-length [2]): binds

B3: substrate 3 dsDNA (dsDNA)
DNA 1: AACAGAGTGCGACACCTGATTCCA
DNA 2: TGGAATCAGGTGTCGCACTCTG
binding result (MFV PR-RT full-length [3]): binds

B4: substrate 1 PPT RNA/DNA hybrid (DNA:RNA)
RNA: UUCUUGUCCAGGAGAGGG
DNA: CCTCTCCTGGACAAG
binding result (MFV PR-RT full-length [4]): binds
